The text below walks through data of patent publication US20050164920A1 (Pfizer, published 2005).

The assay addresses TrkB receptor on rat cerebellar neurons (rat, UniProt Q63604 32-821). Kind of assay: cell-based or functional assay.

Positions of bridges follow the written chain, without caps; N, C: chain ends.

TrkB receptor on rat cerebellar neurons, sequence (Q63604 32-821): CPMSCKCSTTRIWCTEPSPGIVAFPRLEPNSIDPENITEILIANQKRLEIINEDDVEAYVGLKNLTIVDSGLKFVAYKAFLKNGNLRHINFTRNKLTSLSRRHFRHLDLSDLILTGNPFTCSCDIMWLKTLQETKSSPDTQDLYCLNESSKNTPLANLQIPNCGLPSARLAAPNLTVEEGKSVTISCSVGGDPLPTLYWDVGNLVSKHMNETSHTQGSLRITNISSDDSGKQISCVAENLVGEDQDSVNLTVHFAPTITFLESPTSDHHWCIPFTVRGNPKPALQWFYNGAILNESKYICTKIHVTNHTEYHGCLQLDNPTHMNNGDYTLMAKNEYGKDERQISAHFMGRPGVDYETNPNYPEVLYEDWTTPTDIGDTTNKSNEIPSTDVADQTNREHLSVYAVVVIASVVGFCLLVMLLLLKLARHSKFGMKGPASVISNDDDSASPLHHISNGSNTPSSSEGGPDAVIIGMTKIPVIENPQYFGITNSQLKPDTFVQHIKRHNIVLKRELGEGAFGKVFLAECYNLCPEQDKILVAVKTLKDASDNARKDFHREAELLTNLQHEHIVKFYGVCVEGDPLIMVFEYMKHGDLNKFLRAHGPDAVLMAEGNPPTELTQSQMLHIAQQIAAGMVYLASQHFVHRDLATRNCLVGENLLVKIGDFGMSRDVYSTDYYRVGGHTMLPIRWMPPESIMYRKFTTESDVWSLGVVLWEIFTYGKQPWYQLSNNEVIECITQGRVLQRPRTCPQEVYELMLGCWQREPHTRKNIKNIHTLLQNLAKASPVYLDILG

B1: N-Ac-CSRRGEC-NH2 (peptide)
peptide: Ac-CSRRGEC-NH2
modifications: disulfide 1-7
SMILES: CC(=O)N[C@H]1CSSC[C@@H](C(N)=O)NC(=O)[C@H](CCC(=O)O)NC(=O)CNC(=O)[C@H](CCCNC(=N)N)NC(=O)[C@H](CCCNC(=N)N)NC(=O)[C@H](CO)NC1=O
Turning to B1, the “inhibition of the BDNF response, fold against the NGF and NT-3 derived peptides” value was about 5 fold.

B2: neurotrophin-4 (NT-4/5), recombinant human (ligand)
chain: GVSETAPASRRGELAVCDAVSGWVTDRRTAVDLRGREVEVLGEVPAAGGSPLRQYFFETRCKADNAEEGGPGAGGGGCRGVDRRHWVSECKAKQSYVRALTADAQGRVGWRWIRIDTACVCTLLSRTGRA
On to B2, for which the neurite outgrowth of rat cerebellar neurons, concentration of maximal response was 1 to 10 ng/mL.

B3: N-Ac-…-NH2 (peptide)
peptide: Ac-CSRRGELAASRRGELC-NH2
modifications: disulfide 1-16
SMILES: CC(=O)N[C@H]1CSSC[C@@H](C(N)=O)NC(=O)[C@H](CC(C)C)NC(=O)[C@H](CCC(=O)O)NC(=O)CNC(=O)[C@H](CCCNC(=N)N)NC(=O)[C@H](CCCNC(=N)N)NC(=O)[C@H](CO)NC(=O)[C@H](C)NC(=O)[C@H](C)NC(=O)[C@H](CC(C)C)NC(=O)[C@H](CCC(=O)O)NC(=O)CNC(=O)[C@H](CCCNC(=N)N)NC(=O)[C@H](CCCNC(=N)N)NC(=O)[C@H](CO)NC1=O
As for B3, the “EC50 of stimulation of neurite outgrowth” value is about 300 nM.

B4: brain-derived neurotrophic factor (BDNF), recombinant human (ligand)
chain: HSDPARRGELSVCDSISEWVTAADKKTAVDMSGGTVTVLEKVPVSKGQLKQYFYETKCNPMGYTKEGCRGIDKRHWNSQCRTTQSYVRALTMDSKKRIGWRFIRIDTSCVCTLTIKRGR
Molecule B4 came in with an increase of neurite length against control culture, BDNF at 5 ng/ml of 60 to 70% and a neurite outgrowth of rat cerebellar neurons, concentration of maximal response of 1 to 10 ng/mL.
